The supplement of paper PMC10065799, “High-throughput profiling of sequence recognition by tyrosine kinases and SH2 domains using bacterial peptide display” (eLife, 2023)

What was measured:
Fer (mouse) = experiment: phosphorylation enrichment, bacterial display (enrichment ratio); higher = better substrate or ligand; peptides without Tyr show the background
c-Abl (mouse) = experiment: as above
Fyn = Fyn (UniProt P06241); experiment: as above
FGFR3 = FGFR3 (UniProt P22607); experiment: as above
Jak2 = Jak2 (UniProt O60674); experiment: as above
c-Src = experiment: as above
FGFR1 = FGFR1 (UniProt P11362); experiment: as above
FGFR1, sequence (P11362 whole entry, looked up): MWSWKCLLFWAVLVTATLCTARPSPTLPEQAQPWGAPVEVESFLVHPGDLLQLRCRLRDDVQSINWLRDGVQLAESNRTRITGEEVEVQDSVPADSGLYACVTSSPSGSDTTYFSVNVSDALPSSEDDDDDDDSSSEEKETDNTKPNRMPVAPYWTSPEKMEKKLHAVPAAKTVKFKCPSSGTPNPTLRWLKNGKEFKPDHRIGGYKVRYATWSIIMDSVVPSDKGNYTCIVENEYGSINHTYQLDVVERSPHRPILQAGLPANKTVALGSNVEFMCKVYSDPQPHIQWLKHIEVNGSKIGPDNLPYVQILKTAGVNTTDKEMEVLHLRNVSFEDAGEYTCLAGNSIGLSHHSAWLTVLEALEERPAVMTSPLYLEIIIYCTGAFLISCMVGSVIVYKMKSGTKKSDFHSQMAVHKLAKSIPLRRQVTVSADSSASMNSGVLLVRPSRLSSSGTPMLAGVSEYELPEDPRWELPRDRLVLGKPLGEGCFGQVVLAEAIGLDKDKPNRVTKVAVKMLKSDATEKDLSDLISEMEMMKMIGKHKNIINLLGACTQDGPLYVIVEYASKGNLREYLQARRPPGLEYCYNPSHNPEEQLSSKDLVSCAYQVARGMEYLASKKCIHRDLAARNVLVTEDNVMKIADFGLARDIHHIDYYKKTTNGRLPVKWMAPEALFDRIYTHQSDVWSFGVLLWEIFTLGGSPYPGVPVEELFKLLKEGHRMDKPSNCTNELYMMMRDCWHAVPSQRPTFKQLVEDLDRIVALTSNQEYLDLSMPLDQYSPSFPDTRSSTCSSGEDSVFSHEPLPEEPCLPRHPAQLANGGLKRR

EPHB1 = EPHB1 (UniProt P54762); experiment: as above
EPHB1, sequence (P54762 whole entry, looked up): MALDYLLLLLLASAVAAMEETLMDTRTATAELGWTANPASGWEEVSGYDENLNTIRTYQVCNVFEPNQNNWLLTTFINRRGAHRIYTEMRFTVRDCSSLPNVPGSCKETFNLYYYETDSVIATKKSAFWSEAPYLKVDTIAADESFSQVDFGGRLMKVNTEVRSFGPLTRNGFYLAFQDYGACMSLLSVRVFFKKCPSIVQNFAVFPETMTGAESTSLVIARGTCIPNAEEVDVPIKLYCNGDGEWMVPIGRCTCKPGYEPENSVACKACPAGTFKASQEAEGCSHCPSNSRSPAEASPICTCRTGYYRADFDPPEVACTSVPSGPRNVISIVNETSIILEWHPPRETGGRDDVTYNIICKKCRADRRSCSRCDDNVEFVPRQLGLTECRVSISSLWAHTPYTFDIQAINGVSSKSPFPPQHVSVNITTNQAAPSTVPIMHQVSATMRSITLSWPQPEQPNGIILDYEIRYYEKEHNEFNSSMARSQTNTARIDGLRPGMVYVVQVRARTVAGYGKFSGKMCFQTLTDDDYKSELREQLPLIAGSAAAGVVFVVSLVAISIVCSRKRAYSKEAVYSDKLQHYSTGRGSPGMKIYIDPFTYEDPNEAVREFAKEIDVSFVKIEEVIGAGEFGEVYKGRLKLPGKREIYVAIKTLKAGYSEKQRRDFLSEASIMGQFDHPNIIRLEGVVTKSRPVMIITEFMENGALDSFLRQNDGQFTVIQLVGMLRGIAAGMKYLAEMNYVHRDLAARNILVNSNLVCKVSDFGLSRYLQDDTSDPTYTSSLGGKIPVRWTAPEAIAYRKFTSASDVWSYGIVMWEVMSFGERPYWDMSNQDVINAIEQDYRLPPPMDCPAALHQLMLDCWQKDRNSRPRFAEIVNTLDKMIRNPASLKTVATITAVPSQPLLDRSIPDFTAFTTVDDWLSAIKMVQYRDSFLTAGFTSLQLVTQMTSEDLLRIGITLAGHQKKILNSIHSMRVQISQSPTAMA

Fes = Fes (UniProt P07332); experiment: as above
Fes, sequence (P07332 whole entry, looked up): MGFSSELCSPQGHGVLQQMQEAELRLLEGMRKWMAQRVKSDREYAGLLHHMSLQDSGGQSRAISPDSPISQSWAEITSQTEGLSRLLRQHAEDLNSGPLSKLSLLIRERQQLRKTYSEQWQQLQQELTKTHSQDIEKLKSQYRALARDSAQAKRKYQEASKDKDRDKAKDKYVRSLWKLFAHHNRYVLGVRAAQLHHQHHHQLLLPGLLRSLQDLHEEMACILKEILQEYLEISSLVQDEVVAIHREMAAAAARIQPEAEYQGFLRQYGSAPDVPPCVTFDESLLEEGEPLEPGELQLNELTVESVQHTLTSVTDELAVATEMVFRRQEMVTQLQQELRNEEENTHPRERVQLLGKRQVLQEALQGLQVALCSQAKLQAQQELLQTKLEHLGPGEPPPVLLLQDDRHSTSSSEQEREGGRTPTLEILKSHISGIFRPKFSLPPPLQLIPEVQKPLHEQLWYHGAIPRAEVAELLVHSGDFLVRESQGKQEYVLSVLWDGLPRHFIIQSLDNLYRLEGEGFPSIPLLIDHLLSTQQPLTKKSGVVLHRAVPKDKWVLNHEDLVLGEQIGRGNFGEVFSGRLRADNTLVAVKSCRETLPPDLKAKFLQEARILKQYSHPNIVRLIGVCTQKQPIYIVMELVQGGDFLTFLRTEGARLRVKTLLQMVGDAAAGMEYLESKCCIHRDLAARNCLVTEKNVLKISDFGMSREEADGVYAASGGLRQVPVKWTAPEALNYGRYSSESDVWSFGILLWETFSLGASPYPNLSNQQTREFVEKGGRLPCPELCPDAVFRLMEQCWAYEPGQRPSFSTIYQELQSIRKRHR

AncSZ = experiment: as above
MERTK = MERTK (UniProt Q12866); experiment: as above
Hck = Hck (UniProt P08631); experiment: as above
EPHB2 = EPHB2 (UniProt P29323); experiment: as above
EPHB2, sequence (P29323 whole entry, looked up): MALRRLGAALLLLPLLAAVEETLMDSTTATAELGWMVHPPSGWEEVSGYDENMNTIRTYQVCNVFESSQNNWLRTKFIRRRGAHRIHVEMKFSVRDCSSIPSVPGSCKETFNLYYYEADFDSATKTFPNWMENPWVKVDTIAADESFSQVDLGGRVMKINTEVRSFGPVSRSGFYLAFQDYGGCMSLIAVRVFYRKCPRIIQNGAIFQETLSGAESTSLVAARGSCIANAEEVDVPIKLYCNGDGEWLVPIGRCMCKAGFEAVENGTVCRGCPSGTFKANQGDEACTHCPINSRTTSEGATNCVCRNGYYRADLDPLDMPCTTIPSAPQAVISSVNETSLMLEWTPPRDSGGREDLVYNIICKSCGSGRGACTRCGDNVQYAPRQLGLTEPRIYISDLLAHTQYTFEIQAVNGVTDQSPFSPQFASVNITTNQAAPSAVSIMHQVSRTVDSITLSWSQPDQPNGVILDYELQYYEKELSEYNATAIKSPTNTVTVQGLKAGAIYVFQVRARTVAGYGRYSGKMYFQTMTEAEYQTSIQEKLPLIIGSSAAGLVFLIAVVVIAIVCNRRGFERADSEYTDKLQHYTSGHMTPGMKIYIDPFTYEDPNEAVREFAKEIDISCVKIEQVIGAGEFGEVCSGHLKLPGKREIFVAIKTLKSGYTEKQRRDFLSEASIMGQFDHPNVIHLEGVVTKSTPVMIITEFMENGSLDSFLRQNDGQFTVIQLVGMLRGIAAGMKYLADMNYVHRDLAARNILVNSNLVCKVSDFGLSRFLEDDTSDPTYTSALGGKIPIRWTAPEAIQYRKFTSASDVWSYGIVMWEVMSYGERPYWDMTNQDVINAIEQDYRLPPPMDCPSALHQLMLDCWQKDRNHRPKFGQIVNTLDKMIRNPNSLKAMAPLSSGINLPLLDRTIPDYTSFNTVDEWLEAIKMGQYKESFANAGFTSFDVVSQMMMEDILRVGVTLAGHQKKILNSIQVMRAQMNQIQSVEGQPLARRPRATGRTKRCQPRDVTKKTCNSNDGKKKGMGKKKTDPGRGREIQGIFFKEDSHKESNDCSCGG

c-Src SH2 = experiment: SH2 binding enrichment of the phosphorylated peptide, bacterial display (enrichment ratio); higher = better substrate or ligand; peptides without Tyr show the background
SHP2-C SH2 = experiment: as above
Grb2 SH2 = Grb2 SH2 (UniProt P62993); experiment: as above
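Throughout, for SH2 binding enrichment of the phosphorylated peptide, bacterial display: peptide library displayed on the E. coli surface as eCPX fusions, selected cells deep-sequenced, score is each peptide's frequency after selection divided by its frequency in the input.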
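Throughout, for phosphorylation enrichment, bacterial display: 11-residue human phosphosite peptides and single-mutation variants displayed on the E. coli surface, counted by deep sequencing, each peptide's frequency after selection divided by its frequency in the unselected input library; frequency after pTyr selection over input frequency; kinase dosed for 20-30% of maximal phosphorylation in three min.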

FGFR3, sequence (P22607 whole entry, looked up): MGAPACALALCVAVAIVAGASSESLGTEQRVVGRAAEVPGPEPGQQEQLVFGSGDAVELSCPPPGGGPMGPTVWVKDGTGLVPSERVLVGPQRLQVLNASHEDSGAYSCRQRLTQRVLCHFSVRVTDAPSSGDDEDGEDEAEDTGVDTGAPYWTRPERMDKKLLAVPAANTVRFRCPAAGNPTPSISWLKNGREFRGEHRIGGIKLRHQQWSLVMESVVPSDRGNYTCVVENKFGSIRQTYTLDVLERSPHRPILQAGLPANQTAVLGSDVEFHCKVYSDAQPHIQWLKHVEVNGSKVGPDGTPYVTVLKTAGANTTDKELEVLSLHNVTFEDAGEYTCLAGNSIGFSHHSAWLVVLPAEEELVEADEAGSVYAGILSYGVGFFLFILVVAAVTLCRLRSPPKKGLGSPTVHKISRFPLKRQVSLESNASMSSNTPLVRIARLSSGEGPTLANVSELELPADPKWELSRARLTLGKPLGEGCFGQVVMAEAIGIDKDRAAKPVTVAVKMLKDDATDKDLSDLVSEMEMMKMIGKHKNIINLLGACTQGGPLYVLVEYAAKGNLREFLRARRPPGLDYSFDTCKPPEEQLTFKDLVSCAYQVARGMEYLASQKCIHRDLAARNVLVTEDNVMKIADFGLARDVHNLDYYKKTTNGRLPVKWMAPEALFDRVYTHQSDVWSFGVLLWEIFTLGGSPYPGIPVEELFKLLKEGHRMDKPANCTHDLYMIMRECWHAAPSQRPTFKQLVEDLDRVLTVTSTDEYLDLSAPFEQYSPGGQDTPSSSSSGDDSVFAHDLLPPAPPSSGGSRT
Fyn, sequence (P06241 whole entry, looked up): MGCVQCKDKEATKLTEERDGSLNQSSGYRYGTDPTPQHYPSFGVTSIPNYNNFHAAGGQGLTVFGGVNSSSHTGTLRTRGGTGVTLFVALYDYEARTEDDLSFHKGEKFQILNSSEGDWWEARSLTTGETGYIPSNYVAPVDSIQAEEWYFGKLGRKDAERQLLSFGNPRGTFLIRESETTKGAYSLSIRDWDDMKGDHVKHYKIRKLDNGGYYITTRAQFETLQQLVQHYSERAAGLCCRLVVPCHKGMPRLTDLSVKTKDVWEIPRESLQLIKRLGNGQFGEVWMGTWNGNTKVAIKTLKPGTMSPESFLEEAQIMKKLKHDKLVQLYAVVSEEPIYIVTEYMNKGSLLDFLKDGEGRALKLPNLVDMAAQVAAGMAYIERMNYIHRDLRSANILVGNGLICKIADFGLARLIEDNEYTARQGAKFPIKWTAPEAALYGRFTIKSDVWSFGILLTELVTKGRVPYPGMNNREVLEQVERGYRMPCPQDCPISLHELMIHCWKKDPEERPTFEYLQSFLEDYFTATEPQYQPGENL

Row | SH2 binding enrichment (c-Src SH2) | SH2 binding enrichment (SHP2-C SH2) | SH2 binding enrichment (Grb2 SH2) | Sequence | phosphorylation enrichment (Fer (mouse)) | phosphorylation enrichment (c-Abl (mouse)) | phosphorylation enrichment (Fyn) | phosphorylation enrichment (FGFR3) | phosphorylation enrichment (Jak2) | phosphorylation enrichment (c-Src) | phosphorylation enrichment (FGFR1) | phosphorylation enrichment (EPHB1) | phosphorylation enrichment (Fes) | phosphorylation enrichment (AncSZ) | phosphorylation enrichment (MERTK) | phosphorylation enrichment (Hck) | phosphorylation enrichment (EPHB2)
1 | 0.461 | 0.562 | 0.908 | LEGEEYRMSGE [KRT3_Y511] | 0.937 | 0.956 | 0.797 | 0.929 | 1.58 | 0.525 | 0.574 | 0.891 | 1.41 | 1.69 | 0.462 | 0.531 | 0.598
2 | 0.362 | 1.12 | 0.85 | LEGKEYRMSGE [KRT3_Y511_E509K] | 0.455 | 0.583 | 0.456 | 0.618 | 0.923 | 0.415 | 0.432 | 0.434 | 0.985 | 0.73 | 0.439 | 0.409 | 0.333
3 | 0.781 | 0.722 | 0.9 | LEISPYMLSGR [LRRK2_Y1718] | 0.806 | 0.491 | 1.44 | 0.652 | 0.64 | 0.929 | 0.718 | 1.02 | 1.28 | 0.852 | 0.588 | 0.932 | 1.1
4 | 0.451 | 0.592 | 0.998 | LEYNEYFRDLN [HPRT1_Y198_D194E] | 0.804 | 1.3 | 1.01 | 1.75 | 2.17 | 1.14 | 1.89 | 1.18 | 2.09 | 2.6 | 0.605 | 0.847 | 0.975
5 | 1.24 | 1.23 | 1.5 | LFSINYLHFGD [KDM4C_Y201_E206D_YF] | 0.813 | 0.968 | 0.561 | 1.22 | 1.56 | 0.612 | 1.07 | 1.19 | 1.56 | 1.32 | 0.783 | 0.71 | 0.538
6 | 0.849 | 0.786 | 1.02 | LGSNGCKKLLK [SEPSECS_Y334_Y334C] | 0.472 | 1.06 | 0.567 | 0.868 | 1.06 | 0.663 | 0.661 | 0.611 | 0.826 | 0.823 | 0.866 | 0.768 | 1.04
7 | 0.427 | 0.435 | 0.808 | LGSNTYPFLLM [SAG_Y120_T125M] | 0.646 | 1.05 | 0.384 | 1.86 | 1.31 | 0.713 | 1.91 | 0.835 | 1.73 | 1.12 | 0.36 | 0.492 | 0.783
8 | 1.11 | 1.24 | 1.36 | LHAAAYWNALA [UQCRC2_Y182_R183W] | 0.385 | 0.582 | 0.388 | 0.564 | 0.926 | 0.424 | 0.379 | 0.419 | 0.882 | 0.769 | 0.461 | 0.428 | 0.572
9 | 0.455 | 0.56 | 0.688 | LHQSTYQCFDV [SLC7A14_Y693_R695C_YF] | 2.23 | 1.05 | 3.33 | 1.11 | 1.14 | 5.09 | 1.14 | 2.34 | 1.25 | 1.25 | 2.26 | 1.42 | 0.896
10 | 0.497 | 0.862 | 0.955 | LHSEAYLKYNE [PBRM1_Y1610_I1614N] | 0.311 | 1.25 | 0.35 | 0.585 | 0.744 | 0.586 | 0.409 | 0.393 | 0.757 | 0.751 | 0.397 | 0.395 | 0.45
11 | 5.09 | 0.626 | 0.736 | LIEQAYDNLHE [PRPF8_Y871_P874L] | 0.821 | 0.479 | 0.714 | 1.05 | 0.593 | 0.325 | 0.6 | 0.623 | 1.38 | 1.44 | 0.426 | 1.15 | 0.877
12 | 1.9 | 1.39 | 1.07 | LISVSYDDWDY [GRIN2A_Y281] | 4.25 | 1.01 | 0.773 | 1.05 | 1.35 | 0.652 | 0.901 | 0.813 | 1.92 | 2.2 | 0.691 | 0.666 | 0.827
13 | 0.511 | 0.628 | 0.863 | LITSVYGCSRQ [TMPRSS6_Y290] | 0.716 | 1.27 | 1.57 | 1.21 | 1.24 | 1.7 | 1.04 | 0.989 | 1.25 | 1.39 | 0.545 | 1.83 | 1
14 | 1.02 | 0.808 | 1.06 | LITTLYIGFLG [KCNQ1_Y267] | 0.929 | 2.22 | 2.11 | 1.89 | 2.33 | 3.29 | 0.712 | 1.19 | 2.46 | 2.41 | 0.989 | 1.51 | 1.12
15 | 1.44 | 1.39 | 1.63 | LLKMMYLMLDN [STAT1_Y203_K201M] | 0.603 | 1.07 | 0.584 | 0.902 | 0.991 | 0.611 | 0.874 | 0.946 | 1.51 | 1.08 | 0.597 | 0.644 | 0.693
16 | 1.37 | 1.5 | 1.71 | LLREWYMIISR [HUWE1_Y4066] | 0.723 | 0.931 | 0.588 | 1.1 | 1.3 | 0.419 | 0.708 | 0.703 | 1.45 | 1.35 | 0.433 | 0.441 | 0.792
17 | 0.39 | 0.63 | 0.797 | LNLDTYQKRLR [PLA2G2D_Y126_R121L] | 0.336 | 0.502 | 0.672 | 0.518 | 0.389 | 0.442 | 0.69 | 0.44 | 0.613 | 0.517 | 0.511 | 0.518 | 0.42
18 | 0.558 | 1.62 | 1.13 | LNNIIYRVERA [CUX2_Y1470] | 0.748 | 0.864 | 0.936 | 0.816 | 1.22 | 1.33 | 0.825 | 0.87 | 1.34 | 1.48 | 0.43 | 0.738 | 0.958
19 | 1.42 | 1.49 | 1.76 | LPHVIYCRLWC [SMAD2_Y128_R133C] | 0.851 | 4.33 | 5.86 | 0.645 | 1.95 | 4.81 | 0.557 | 7.33 | 1.35 | 1.12 | 2.98 | 6.12 | 3.17
20 | 1.17 | 1.03 | 0.918 | LPPREYVVVPS [CAPN1_Y494_G492R] | 1.73 | 0.726 | 1.41 | 2.46 | 1.04 | 0.48 | 2.83 | 3.78 | 2.17 | 2.29 | 0.631 | 1.73 | 4.02
21 | 1.44 | 0.889 | 1.24 | LQPNNYQFCGG [CSF1R_Y969] | 0.627 | 2.74 | 1.14 | 1.09 | 1.24 | 0.632 | 1.04 | 4.08 | 1.18 | 1.49 | 1.6 | 0.86 | 2.2
22 | 0.477 | 0.591 | 0.786 | LRFKQYLRNPP [SHC1_Y315] | 0.623 | 0.847 | 0.551 | 0.767 | 1.17 | 0.642 | 0.865 | 0.562 | 1.11 | 0.957 | 0.564 | 1.04 | 1.8
23 | 1.26 | 1.32 | 1.46 | LRWREYQRQDY [PRKRIP1_Y90_R87W] | 0.376 | 0.737 | 0.574 | 0.585 | 0.997 | 0.486 | 0.626 | 0.439 | 0.957 | 1.12 | 0.409 | 0.453 | 0.761
24 | 1.56 | 0.523 | 0.557 | LSDGPYSNSYE [EPOR_Y485_P488S] | 0.604 | 0.762 | 0.59 | 1.02 | 1.38 | 0.968 | 0.862 | 0.944 | 1.2 | 1.24 | 0.622 | 0.664 | 0.67
25 | 0.595 | 0.99 | 1.45 | LSGVIYVILWK [PMP22_Y153_R157W] | 0.583 | 0.996 | 0.304 | 0.652 | 1.55 | 0.752 | 0.358 | 0.809 | 1.95 | 1.44 | 0.666 | 0.538 | 0.538
26 | 0.413 | 1.08 | 0.912 | LSKDLYLISQM [LARP4_Y141] | 0.918 | 1.06 | 0.828 | 1.41 | 1.28 | 0.639 | 0.933 | 1.59 | 1.63 | 1.78 | 0.703 | 0.836 | 1.29
27 | 0.58 | 0.715 | 0.959 | LSPPVYLTNEW [NRK_Y885_I880L] | 0.636 | 1.21 | 0.587 | 0.758 | 1.54 | 0.909 | 0.702 | 0.736 | 1.26 | 0.935 | 0.616 | 0.651 | 0.851
28 | 0.795 | 1.27 | 1.29 | LSSNLYYRWLT [CNGA3_Y168_P163L] | 8.47 | 12.6 | 6.81 | 17.8 | 13.4 | 6.55 | 21.5 | 7.53 | 3.38 | 6.06 | 20.4 | 15.2 | 8.33

Row | Sequence | SH2 binding enrichment (c-Src SH2) | SH2 binding enrichment (SHP2-C SH2) | SH2 binding enrichment (Grb2 SH2) | phosphorylation enrichment (Fer (mouse)) | phosphorylation enrichment (c-Abl (mouse)) | phosphorylation enrichment (Fyn) | phosphorylation enrichment (FGFR3) | phosphorylation enrichment (Jak2) | phosphorylation enrichment (c-Src) | phosphorylation enrichment (FGFR1) | phosphorylation enrichment (EPHB1) | phosphorylation enrichment (Fes) | phosphorylation enrichment (AncSZ) | phosphorylation enrichment (MERTK) | phosphorylation enrichment (Hck) | phosphorylation enrichment (EPHB2)
29 | LRFDVYGGENE [STOX1_Y610_E608D_YF] | 0.523 | 0.798 | 0.943 | 0.594 | 0.793 | 0.539 | 0.629 | 1.22 | 0.528 | 0.509 | 0.596 | 1.29 | 1.09 | 0.405 | 0.498 | 0.644
